Earlier results on 1 substance are cited in article PMC6359176.

The data set concerns the target α-synuclein preformed fibrils (Homo sapiens) (UniProt P37840).

As to LAG3 (from UniProt Q61790), the Kd is 77 nM.
